Where “and” joins values, the source holds several entries; their conditions need not be identical. Equal entries are not always repeated.
Molecular target: poliovirus 3AsolBC protein (poliovirus)
Assay: SEC

Substance: poliovirus 3AsolBC protein (natural protein)
- Kd: 20 to 60 µM
- percent of the total absorbance in the leading-edge (dimer) peak: 10% and 30%
